Measurements from the Human Domainome abundance scans (Beltran et al. 2025).
± gives the uncertainty stated by the source.

B1: TOX high mobility group box family member 3, residues 256 to 323; numbered along this chain, O15405 (parent)
chain: QKPVSAYALFFRDTQAAIKGQNPNATFGEVSKIVASMWDSLGEEQKQVYKRKTEAAKKEYLKALAAYR

Variants of: B1
Test: abundance fitness (aPCA) (normalised: wild type 0, dead -1); higher = more abundant; growth selection in yeast, the domain comes from the species named
Details: Homo sapiens

Point of comparison: QKPVSAYALFFRDTQAAIKGQNPNATFGEVSKIVASMWDSLGEEQKQVYKRKPEAAKKEYLKALAAYR, abundance fitness -0.326 ± 0.076. Against it:
- QKPVSAYPLFFRDTQAAIKGQNPNATFGEVSKIVASMWDSLGEEQKQVYKRKTEAAKKEYLKALAAYR — within error, -0.464 ± 0.12
- QKPVSAYALFFRDTQADIKGQNPNATFGEVSKIVASMWDSLGEEQKQVYKRKTEAAKKEYLKALAAYR — within error, -0.133 ± 0.12
- QKPHSAYALFFRDTQAAIKGQNPNATFGEVSKIVASMWDSLGEEQKQVYKRKTEAAKKEYLKALAAYR — within error, -0.182 ± 0.081
- QKPWSAYALFFRDTQAAIKGQNPNATFGEVSKIVASMWDSLGEEQKQVYKRKTEAAKKEYLKALAAYR — within error, -0.331 ± 0.063
- QKPTSAYALFFRDTQAAIKGQNPNATFGEVSKIVASMWDSLGEEQKQVYKRKTEAAKKEYLKALAAYR — higher, -0.073 ± 0.079
- QKPVSAYALFFRDTQAAIKGQNPNATFGEVSKIVASMWDSLGEEQKQVYKRKFEAAKKEYLKALAAYR — higher, 0.157 ± 0.11
- QKPVSAYALFFRDTQAAIKGQNPNATFGEVSKIVASMWDSLGEEQKQVYKRKTEAAKKEYLEALAAYR — higher, -0.006 ± 0.059
- QKPVSAYALFFRDTQAAIKGQNPNATFGEVSKIVASMWDSLGEEQKQVYKRKTEAAKKEYMKALAAYR — higher, -0.138 ± 0.059
- QKPVSAYALFFRDTQAAIKGQNPNATFGEVSKSVASMWDSLGEEQKQVYKRKTEAAKKEYLKALAAYR — within error, -0.267 ± 0.05
- QKPVSAYALFFRDTQAAIKGQNPNATFGEVSKCVASMWDSLGEEQKQVYKRKTEAAKKEYLKALAAYR — within error, -0.324 ± 0.089
- QKPVSAYALFLRDTQAAIKGQNPNATFGEVSKIVASMWDSLGEEQKQVYKRKTEAAKKEYLKALAAYR — higher, -0.176 ± 0.069
- QKPVSAYALFYRDTQAAIKGQNPNATFGEVSKIVASMWDSLGEEQKQVYKRKTEAAKKEYLKALAAYR — within error, -0.278 ± 0.19
- QKPVSAYALGFRDTQAAIKGQNPNATFGEVSKIVASMWDSLGEEQKQVYKRKTEAAKKEYLKALAAYR — lower, -0.957 ± 0.14
- QKPVSAYALFFGDTQAAIKGQNPNATFGEVSKIVASMWDSLGEEQKQVYKRKTEAAKKEYLKALAAYR — within error, -0.223 ± 0.067
- QKPVSAYALFFRDTQAAISGQNPNATFGEVSKIVASMWDSLGEEQKQVYKRKTEAAKKEYLKALAAYR — higher, -0.127 ± 0.06
- QKPVSAYALFFRDTQAAIKGQNPNATFGEWSKIVASMWDSLGEEQKQVYKRKTEAAKKEYLKALAAYR — within error, -0.319 ± 0.074
- QKPVSAYALFFRDTQAAIKGQNPNATFGEESKIVASMWDSLGEEQKQVYKRKTEAAKKEYLKALAAYR — within error, -0.453 ± 0.1
- QKPVSAYALFFRDTQAAIKGQNPNATFGEVSKIVASMWDSLGEEQKQVYKRFTEAAKKEYLKALAAYR — lower, -0.93 ± 0.17
- QKPVSAYALFFRDTQAAIKGQNPNATFGEVSKIVASMWDSLGEEQKQVYKRKTNAAKKEYLKALAAYR — higher, -0.117 ± 0.07
- QKPVSAYALFFRDTQAAIKGQNPNATFGEVSKIVASMWDSLGEEQKQVYKRKTQAAKKEYLKALAAYR — higher, -0.158 ± 0.07
- QKPVSAYALFFRDTQAAIKGQNPNATFGEVSKIVASMWDSLGIEQKQVYKRKTEAAKKEYLKALAAYR — within error, -0.339 ± 0.18
- QKPVSAYALFFRDTQAAIKGQNPNATFGEVSKIVASMWDSLGEEQKQVYKRKTEAYKKEYLKALAAYR — within error, -0.102 ± 0.17
- QKPVSAYALFFRDTQAAIKGQNPEATFGEVSKIVASMWDSLGEEQKQVYKRKTEAAKKEYLKALAAYR — higher, -0.001 ± 0.07
- QKPVSAYALFFRDTQAAIKGQNPMATFGEVSKIVASMWDSLGEEQKQVYKRKTEAAKKEYLKALAAYR — higher, -0.095 ± 0.058
- QKPVSAYALFFRDTQPAIKGQNPNATFGEVSKIVASMWDSLGEEQKQVYKRKTEAAKKEYLKALAAYR — higher, 0.067 ± 0.063
- QKPVSAYALFFRDTQAAIKGQNPNATFGEVSKIVASMPDSLGEEQKQVYKRKTEAAKKEYLKALAAYR — lower, -1.03 ± 0.22
- QKPVSSYALFFRDTQAAIKGQNPNATFGEVSKIVASMWDSLGEEQKQVYKRKTEAAKKEYLKALAAYR — higher, -0.075 ± 0.092
- QKPVSRYALFFRDTQAAIKGQNPNATFGEVSKIVASMWDSLGEEQKQVYKRKTEAAKKEYLKALAAYR — lower, -0.808 ± 0.1
- QKPVSAYALFFRDTQAAIKGQNPNANFGEVSKIVASMWDSLGEEQKQVYKRKTEAAKKEYLKALAAYR — higher, 0.03 ± 0.079
- QKPVSAYALFFRDTQAAIKGQNPNATFGEVSKIVASMWDSLGEEQKQVYKMKTEAAKKEYLKALAAYR — higher, -0.069 ± 0.056
- QKPVSAYALFFRDTQAAIKGQNPNATFGEVSKIVASMWDSLGEEQKQVYKPKTEAAKKEYLKALAAYR — within error, -0.225 ± 0.059
- QKPVSAYALFFRDTQAAIKGQNPNATFGEVSKIVASMWDSLGEEQKQVYKGKTEAAKKEYLKALAAYR — higher, -0.032 ± 0.049
- QKPVSAYALFFRDTQAAIKGQNPNATFGEVSKIVKSMWDSLGEEQKQVYKRKTEAAKKEYLKALAAYR — higher, -0.024 ± 0.13
- QKPVSAYALFFRDTQAAIKGQNPNATFGEVSKIVVSMWDSLGEEQKQVYKRKTEAAKKEYLKALAAYR — lower, -0.727 ± 0.19
- QKPVSAYALFFRDHQAAIKGQNPNATFGEVSKIVASMWDSLGEEQKQVYKRKTEAAKKEYLKALAAYR — within error, -0.453 ± 0.34
- QKPVSAYALFFRDKQAAIKGQNPNATFGEVSKIVASMWDSLGEEQKQVYKRKTEAAKKEYLKALAAYR — higher, 0.066 ± 0.077
- QKPVSAYALFFRDTQAAIKGQNMNATFGEVSKIVASMWDSLGEEQKQVYKRKTEAAKKEYLKALAAYR — lower, -0.743 ± 0.13
- QKPVSAYALFFRDTQAAIKGQNCNATFGEVSKIVASMWDSLGEEQKQVYKRKTEAAKKEYLKALAAYR — lower, -0.627 ± 0.21
- QKPVSAYALFFRDTQAAIKGQNPNATFGEVSNIVASMWDSLGEEQKQVYKRKTEAAKKEYLKALAAYR — higher, 0.214 ± 0.21
